Publication PMC11124806, “Optimization of Surface Functionalizations for Ring Resonator-Based Biosensors”

T1: C-reactive protein (CRP) (UniProt P02741 19-224)
T1 sequence: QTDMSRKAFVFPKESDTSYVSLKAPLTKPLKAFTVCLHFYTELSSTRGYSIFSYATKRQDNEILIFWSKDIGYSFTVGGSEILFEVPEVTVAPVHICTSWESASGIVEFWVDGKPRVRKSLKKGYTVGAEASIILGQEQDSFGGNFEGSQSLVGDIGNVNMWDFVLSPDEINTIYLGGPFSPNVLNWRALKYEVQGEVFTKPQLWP


Columns and labels:
thrombin (Thr) = thrombin (Thr) (UniProt P00734;P00734 328-363;364-622); assay: microring resonator (label-free photonic biosensor); 100 nM thrombin, 0.05% Tween 20, MCH-passivated chip; about 71% retained after buffer wash; CRP: 20 mM Hepes, 120 mM NaCl, 5 mM KCl, 1 mM CaCl2, 1 mM MgCl2, pH 7.3, room temperature, 30 min; thrombin: buffer with 0.05% Tween 20 (composition and tempera)
C-reactive protein (CRP) = target: T1, C-reactive protein (CRP); assay: surface sandwich chemiluminescence (anti-CRP antibody-HRP); 100 nM CRP, 1 mM Ca2+, 1 mM Mg2+; still binds after two months storage at 4 C; CRP: 20 mM Hepes, 120 mM NaCl, 5 mM KCl, 1 mM CaCl2, 1 mM MgCl2, pH 7.3, room temperature, 30 min; thrombin: buffer with 0.05% Tween 20 (composition and temperature not in material); conditions: protein: commercial; chain copies: 5; label: 3' TAMRA on some amounts

| Binder | binding result (thrombin (Thr)) | binding result (C-reactive protein (CRP)) |
| --- | --- | --- |
| AGTCCGTGGTAGGGCAGGTTGGGGTGACT (structured_DNA, 5' thiol (5ThioMC6-D, reduced), immobilized on mercaptosilane) [a-Thr] | binds | – |
| CGAAGGGGATTCGAGGGGTGATTGCGTGCTCCATTTGGTG (ssDNA, 5' thiol (5ThioMC6-D, reduced), immobilized on mercaptosilane) [a-CRP] | – | binds |
